Here are results for two molecules from patent US11098109B2, “Single-chain variable fragment anti-CD133 antibodies and uses thereof” (REGENTS OF THE UNIVERSITY OF MINNESOTA, priority 2010, dated 2021).

For assay [1], the target named is T1, CD133 (Homo sapiens, UniProt O43490).
T1 construct: endogenous in cells
T1 sequence (O43490 20-865): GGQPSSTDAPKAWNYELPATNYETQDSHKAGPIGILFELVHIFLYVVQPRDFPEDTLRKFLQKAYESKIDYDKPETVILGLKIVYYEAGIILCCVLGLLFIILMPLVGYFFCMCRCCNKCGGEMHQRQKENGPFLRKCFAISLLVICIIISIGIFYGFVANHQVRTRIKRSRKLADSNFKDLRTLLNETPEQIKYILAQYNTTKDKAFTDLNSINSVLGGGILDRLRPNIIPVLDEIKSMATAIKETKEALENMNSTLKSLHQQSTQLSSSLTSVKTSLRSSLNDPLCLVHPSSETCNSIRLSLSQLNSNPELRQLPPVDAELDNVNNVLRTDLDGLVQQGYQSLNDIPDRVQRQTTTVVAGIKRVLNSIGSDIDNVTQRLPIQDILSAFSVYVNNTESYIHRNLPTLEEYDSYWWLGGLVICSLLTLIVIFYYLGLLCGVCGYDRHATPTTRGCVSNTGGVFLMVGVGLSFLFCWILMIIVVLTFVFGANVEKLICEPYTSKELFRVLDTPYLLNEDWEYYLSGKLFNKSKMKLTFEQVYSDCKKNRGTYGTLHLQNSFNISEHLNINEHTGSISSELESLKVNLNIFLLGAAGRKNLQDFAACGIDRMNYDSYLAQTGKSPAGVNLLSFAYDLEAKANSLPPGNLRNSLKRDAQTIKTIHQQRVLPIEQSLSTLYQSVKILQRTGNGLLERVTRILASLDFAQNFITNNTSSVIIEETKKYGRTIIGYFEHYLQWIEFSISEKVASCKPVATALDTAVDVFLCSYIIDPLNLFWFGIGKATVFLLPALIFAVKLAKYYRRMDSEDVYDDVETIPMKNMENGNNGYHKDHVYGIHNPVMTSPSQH
The experiment in a line: Western blot screening of hybridoma supernatants on Caco-2 lysates. Particulars: CD133^+ Caco-2 cell lysates. It counts as binding. As for the experimental part:
FIG. 2: Analysis of the newly generated CD133 hybridoma. Supematants of hybridoma clones were tested as a primary antibody in western blot (A) and Immunofluorescence (B) assays. Pre-immunized serum (-ve) or post immune anti sera (a.s.) served as controls. For western blot, Caco-2 lysates normalized for protein concentration were loaded onto a SDS-PAGE gel, resolved, blotted onto a nitrocellulose membrane and cut into strips. Each strip was probed with supernatant from the identified hybridoma. Membrane in Lane 1 was probed with a commercially available antibody (ab 19898, Abcam) and served as an additional positive control. For immunofluorescence, Caco-2 cells were fixed and immunostained with the hybridoma supernatants. A commercially available antibody (293C3, Militenyi) was used as additional positive control. Scale bars in the panel represent 200 micrometers. Supernatant of Hybridoma Clone 7 was used in the immunohistochemical analysis of primary glioblastoma and kidney tissue (C).
Caco-2 cells were lysed in RIPA buffer (Thermo Scientific, Waltham. Mass.) and centrifuged at 10,000 rpm and 4° C. to remove debris. The protein concentration of cell lysates was measured using BCA protein assay kit (Thermo Scientific, Waltham, Mass.), with bovine serum albumin as the standard. […]
(In general: A western blot detects proteins with antibodies after separation by electrophoresis.)

Assay [2] concerns the target T2, human prominin-1 (Homo sapiens, UniProt O43490, DEL381-611).
T2 construct: His-tag (6xHis) (N); made in house
T2 sequence (O43490 with tags, fused parts or gaps DEL381-611): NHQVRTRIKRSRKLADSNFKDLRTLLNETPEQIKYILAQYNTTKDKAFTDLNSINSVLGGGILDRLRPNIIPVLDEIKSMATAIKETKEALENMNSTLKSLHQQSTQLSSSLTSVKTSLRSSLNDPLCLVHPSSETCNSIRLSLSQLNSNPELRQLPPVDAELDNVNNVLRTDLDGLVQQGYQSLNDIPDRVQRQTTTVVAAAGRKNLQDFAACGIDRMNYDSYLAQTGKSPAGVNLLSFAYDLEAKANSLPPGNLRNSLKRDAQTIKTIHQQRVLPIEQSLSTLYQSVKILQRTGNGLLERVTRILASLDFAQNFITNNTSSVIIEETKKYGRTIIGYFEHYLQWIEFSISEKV
Nature of the assay: Soluble scFv ELISA. Conditions: for binding specificity in soluble scFv ELISA: scFv from culture medium and periplasmic space. It counts as binding. As for the experimental part: A single colony was picked from No. 11 DNA transformed Top10F′ E. coli LB-Amp plate in and used to inoculate 25 mL LB medium with 100 μg/mL Amp. The culture was shaken at 37° C. at 250 rpm overnight.
The 25 mL overnight culture was diluted to 500 mL LB containing Amp and was shaken at 37° C. at 250 rpm for about two hours until the OD600 reached 0.5 to 0.7. IPTG was added to a final concentration of 1 mM. The culture was shaken at 30° C. overnight.
The culture was centrifuged at 5.000 g for 20 minutes at 4° C. The supernatant was kept for ELISA.
The cell pellet was completely suspended with 50 mL ice-cold PBS containing protease inhibitors (1 mM PMSF), and was sonicated on ice in short bursts. The power setting was 7 min, 40% power cycle 5 (HD2200 W/MS 73). Triton X-100 was added to the cell lysate to a final concentration of 1% and was mixed gently for 30 minutes at room temperature to aid in solubilization of the fusion protein.
The mixture was centrifuged at 15,000 rpm (Heraeus #3334 rotor) for 30 minutes at 4° C., and the supernatant was taken for ELISA.
The 2 supernatants were diluted (one is from overnight culture supernatant, and the other is from overnight culture pellet) containing soluble mouse scFv with equal volume of 5% milk and were incubated for 10 minutes at room temperature.
100 μL of the diluted scFv was added to each well (coated with human prominin-1), and incubated for one hour at 37° C.
The plate was washed five times.
50 μL per well of diluted secondary antibody conjugate at 1:2.000 (HOURP-conjugated anti-HA, diluted in 5% milk) was added, and incubated for one hour at 37° C.
50 μL/well TMB substrate was added for detection, and incubated for 30 minutes at room temperature.
Soluble scFv ELISA was performed to confirm the binding specificity to the target protein. Here, the expressed scFv was captured by human prominin-1 pre-coated plate, and the binding of the soluble scFv fused with HA tag was detected with anti-HA Ab-HOURP conjugate. […] Supernatant and pellet are test samples. PC means positive control, hybridoma secreted antibody (diluted at 1:2000) was used. BLK means blank.
(In general: In an ELISA, binding on a coated surface is turned into a signal by an enzyme label.)

B1: Hybridoma Clone 7: monoclonal antibody produced by Hybridoma Clone 7 that specifically binds to human CD133 (antibody, V domains shown)
VL: DIVLSQSPAIMSASPGEKVTISCSASSSVSYMYWYQQKPGSSPKPWIYRTSNLASGVPARFSGSGSGTSYSLTISSMEAEDAATYYCQQYHSYPPTFGAGTKLELK
VH: LEVKLVESGPELKKPGETVKISCKASGYTFTDYSMHWVNQAPGKGLKWMGWINTETGEPSYADDFKGRFAFSLETSASTAYLQINNLKNEDTATYFCATDYGDYFDYWGQGTTLTVSS
B1: the “Western blot band with hybridoma supernatant” value in assay [1] is “distinct band corresponding to the predicted molecular weight of CD133”. Besides, the “A450, Positive Control” value in assay [2] (hybridoma secreted antibody diluted at 1:2000) is 1.9.

B2: No. 11 scFv: soluble scFv of the Hybridoma Clone 7 antibody expressed in E. coli Top10F', SEQ ID NO:58; also used FITC-labeled (protein)
scFv: MDIVLSQSPAIMSASPGEKVTISCSASSSVSYMYWYQQKPGSSPKPWIYRTSNLASGVPARFSGSGSGTSYSLTISSMEAEDAATYYCQQYHSYPPTFGAGTKLELKSSGGGGSGGGGGGSSRSSLEVKLVESGPELKKPGETVKISCKASGYTFTDYSMHWVNQAPGKGLKWMGWINTETGEPSYADDFKGRFAFSLETSASTAYLQINNLKNEDTATYFCATDYGDYFDYWGQGTTLTVSS
modifications: optionally FITC-labeled; scFv polypeptide
Consider B2, for which the “A450, Supernatant” value in assay [2] (culture supernatant of Top10F' E. coli) turned out to be 0.9. Also, the “A450, Pellet” value in assay [2] (lysate of culture pellet (periplasmic space)) was determined as 1.4. For the same molecule, the “binding specificity in soluble scFv ELISA” value in assay [2] is listed as “confirmed specific for human prominin-1 protein”; in assay [2] (listed as Recombinant Clone 11 scFv), “specific for human CD133”.
